Measured values published in article PMC9838217, “Structure of SALL4 zinc finger domain reveals link between AT-rich DNA binding and Okihiro syndrome”.

How the values were obtained:
SALL4 ZFC4 WT [1] = biological target: T1, SALL4 ZFC4 WT (Mus musculus, UniProt Q8BX22 870-940); experiment: X-ray crystallography 2.76 A; Zn2+; 4 ZFC4 and 4 dsDNA per asymmetric unit, unevenly distributed; 50 mM MES pH 6.0, 20% PEG 3350, 60 mM MgCl2; EMSA: 68.1 nM DY681-dsDNA, 20 mM HEPES pH 7.5, 150 mM K acetate, 5 mM Mg acetate, 10 ng/ul poly(dI-dC), 30 min on ice; 4% native PAGE, 0.5x TBE, 4 C; conditions: protein: recombinant; tags: His6-GST removed with 3C protease; GPDS scar at N-terminus; blunt; self-complementary, 2 copies of strand
T1 sequence: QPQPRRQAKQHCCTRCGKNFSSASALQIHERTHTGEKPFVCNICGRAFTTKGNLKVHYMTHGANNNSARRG

SALL4 ZFC4 R900W = biological target: T2, SALL4 ZFC4 R900W (Mus musculus, UniProt Q8BX22 870-940, R900W); experiment: EMSA; EMSA: 20 mM HEPES pH 7.5, 150 mM K acetate, 5 mM Mg acetate, 10 ng/ul poly(dI-dC), 68.1 nM DNA, on ice 30 min, gel at 4 C. HT-SELEX: 10 mM Tris-HCl pH 7.5, 50 m; conditions: protein: recombinant; tags: His6-GST removed with 3C protease; label: DY681
T2 sequence: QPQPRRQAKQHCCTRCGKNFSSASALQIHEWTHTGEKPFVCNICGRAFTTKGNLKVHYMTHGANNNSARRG

SALL4 ZFC4 I897S = biological target: T3, SALL4 ZFC4 I897S (Mus musculus, UniProt Q8BX22 870-940, I897S); experiment: as above; conditions: protein: recombinant; tags: His6-GST removed with 3C protease; label: DY681
T3 sequence: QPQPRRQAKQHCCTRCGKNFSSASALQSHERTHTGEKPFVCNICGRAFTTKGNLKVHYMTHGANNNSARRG

SALL4 ZFC4 I897S+V925S = biological target: T4, SALL4 ZFC4 I897S+V925S (Mus musculus, UniProt Q8BX22 870-940, I897S;V925S); experiment: as above; conditions: protein: recombinant; tags: His6-GST removed with 3C protease; label: DY681
T4 sequence: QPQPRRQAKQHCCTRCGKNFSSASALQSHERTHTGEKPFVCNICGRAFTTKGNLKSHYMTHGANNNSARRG

SALL4 ZFC4 WT [2] = biological target: T1, SALL4 ZFC4 WT; experiment: as above; conditions: protein: recombinant; tags: His6-GST removed with 3C protease; GPDS scar at N-terminus; label: DY681
SALL4 ZFC4 WT [3] = biological target: T1, SALL4 ZFC4 WT; experiment: EMSA; apparent; patient mutation dataset; poly(dI-dC); EMSA: 68.1 nM DY681-dsDNA, 20 mM HEPES pH 7.5, 150 mM K acetate, 5 mM Mg acetate, 10 ng/ul poly(dI-dC), 30 min on ice; 4% native PAGE, 0.5x TBE, 4 C; conditions: protein: recombinant; tags: His6-GST removed with 3C protease; GPDS scar at N-terminus; label: DY681
SALL4 ZFC4 WT [4] = biological target: T1, SALL4 ZFC4 WT; experiment: EMSA; apparent; major groove mutant dataset; poly(dI-dC); EMSA: 68.1 nM DY681-dsDNA, 20 mM HEPES pH 7.5, 150 mM K acetate, 5 mM Mg acetate, 10 ng/ul poly(dI-dC), 30 min on ice; 4% native PAGE, 0.5x TBE, 4 C; conditions: protein: recombinant; tags: His6-GST removed with 3C protease; GPDS scar at N-terminus; label: DY681

B1: palindromic AT-rich crystallisation DNA (dsDNA)
DNA 1: GATATTAATATC
DNA 2: GATATTAATATC
binding result (SALL4 ZFC4 WT [1]): binds

B2: EMSA AT-rich probe (dsDNA)
DNA 1: AAAAAATATTAAAAA
DNA 2: TTTTTAATATTTTTT
Kd (SALL4 ZFC4 R900W): 23000 nM | Kd (SALL4 ZFC4 I897S): 4800 nM | Kd (SALL4 ZFC4 I897S+V925S): 5100 nM | Kd (SALL4 ZFC4 WT [2]): 615 ± 205 nM | Kd (SALL4 ZFC4 WT [3]): 472 nM | Kd (SALL4 ZFC4 WT [4]): 760 nM
